Measured values taken from article PMC9638028, “Yeast Smy2 and its human homologs GIGYF1 and -2 regulate Cdc48/VCP function during transcription stress” (Cell Reports, 2022).
Positions count from the first letter of the chain named. Names may count otherwise.

B1: GST-Smy2 (205-261), GYF (domain or fragment, S. cerevisiae, UniProt P32909 205-261, looked up)
chain: ESSWRYIDTQGQIHGPFTTQMMSQWYIGGYFASTLQISRLGSTPETLGINDIFITLG
notes: Smy2, S. cerevisiae, amino acids 205-261 holding the GYF motif; Vector pGST 6p-1 / pGEX 6p-1; also called GST-GYF; GST-Smy_(205-261); source: bacterial expression (E. coli), purified on glutathione agarose beads
B2: GST-Smy2 (205-261) Y234A, GAF (domain or fragment, S. cerevisiae, UniProt P32909 205-261, looked up)
chain: B1 chain with Y30A
notes: Smy2, S. cerevisiae, amino acids 205-261 with the GYF motif changed to GAF; also called GST-GAF; mutated (GAF) version; source: bacterial expression (E. coli), purified on glutathione agarose beads

Target: T1, Cdc48-FLAG3 (S. cerevisiae, UniProt P25694 1-835)
T1 construct: Cdc48, S. cerevisiae; the results and the purification methods say it was purified from yeast; also called FLAG-tagged Cdc48; purified Cdc48; source: S. cerevisiae W303, expressed from the endogenous locus; in extract for the co-IP
T1 sequence (P25694 whole entry): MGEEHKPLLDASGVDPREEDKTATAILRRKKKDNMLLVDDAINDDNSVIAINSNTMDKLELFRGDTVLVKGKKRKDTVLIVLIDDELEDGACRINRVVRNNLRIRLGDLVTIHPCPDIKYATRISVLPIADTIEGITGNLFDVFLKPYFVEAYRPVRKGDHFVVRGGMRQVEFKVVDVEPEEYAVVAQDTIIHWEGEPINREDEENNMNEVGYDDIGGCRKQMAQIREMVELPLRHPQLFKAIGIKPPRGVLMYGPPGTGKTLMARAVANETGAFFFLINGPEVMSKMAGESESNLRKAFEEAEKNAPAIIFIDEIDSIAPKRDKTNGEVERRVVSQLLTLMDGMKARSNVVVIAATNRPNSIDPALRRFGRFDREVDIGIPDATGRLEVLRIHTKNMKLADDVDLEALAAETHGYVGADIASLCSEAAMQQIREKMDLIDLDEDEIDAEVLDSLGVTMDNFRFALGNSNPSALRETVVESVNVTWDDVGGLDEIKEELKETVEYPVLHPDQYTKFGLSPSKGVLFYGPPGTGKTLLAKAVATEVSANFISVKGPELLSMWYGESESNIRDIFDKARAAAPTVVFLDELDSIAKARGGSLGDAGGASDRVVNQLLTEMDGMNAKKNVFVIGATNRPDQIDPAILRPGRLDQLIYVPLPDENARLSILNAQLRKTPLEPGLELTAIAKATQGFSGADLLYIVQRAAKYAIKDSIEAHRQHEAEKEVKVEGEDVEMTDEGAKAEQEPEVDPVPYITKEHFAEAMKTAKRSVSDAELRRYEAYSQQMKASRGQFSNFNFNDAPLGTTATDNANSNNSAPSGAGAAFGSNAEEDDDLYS
Test: pull-down; GST, GST-GYF or GST-GAF on glutathione beads, 10-fold molar excess of Cdc48-Flag; 20 mM Tris pH 7.5, 200 mM NaCl, 0.05% Triton X-100, 15% glycerol, 75 ug/mL BSA; 2 h; western blot
Settings: both partners purified

Binder | binding result
B1 | binds
B2 | binds
